Experimental data as given in patent US20190202912A1 (NEXTCURE, published 2019).

T1: S15-extra cellular domain (ECD) monomer (human, UniProt Q6ZMC9 20-263)
T1 construct: also called S15 monomer protein
T1 sequence: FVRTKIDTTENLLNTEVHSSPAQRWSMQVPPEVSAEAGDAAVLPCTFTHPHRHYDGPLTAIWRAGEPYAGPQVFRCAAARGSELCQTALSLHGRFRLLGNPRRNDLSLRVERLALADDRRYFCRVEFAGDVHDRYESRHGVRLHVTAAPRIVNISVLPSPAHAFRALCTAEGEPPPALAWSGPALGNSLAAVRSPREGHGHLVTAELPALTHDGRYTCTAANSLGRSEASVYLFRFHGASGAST


Target: T1, S15-extra cellular domain (ECD) monomer
Experiment: BLI (Octet RED96), mAb on anti-human Fc sensors, S15-ECD monomer in solution, global fit
Description: Optimized KD experiments were performed on a ForteBio Octet RED96 instrument using anti-human Fc capture (AHC, 18-5060; ForteBio) sensors. Assay buffer was PBS containing 0.05% Tween-20 and regeneration buffer was 10 mM glycine (pH 1.5). First the antibodies were loaded at 1 μg/mL for 600 seconds. This was followed by a 60 second baseline step, a 300 second association step in S15-extra cellular domain (ECD) monomer, and finally a 1200 second dissociation step. The monomer concentrations ranged from 100 nM to 1.56 nM in a two-fold dilution series and a blank well was included. Data was processed using ForteBio's Data Analysis Software 7.0; a global fit was used, along with reference well subtraction. Reported values are the average of at least three independent octet runs.

Row | Kd | koff | kon | Binder
1 | 3.86 nM | 0.000102 s⁻¹ | 32000 M⁻¹ s⁻¹ | 99B (antibody, V domains shown, Mouse anti-human Siglec-15 mAb; also called NC99) VH: QVQLQQSGAELARPGASVKLSCKASGYTFTSDGITWLKQRTGQGLEWIGQIHPRSGNTYYNEKFKGKATLTADKSSSTAYMELRSLTSEDSAVYFCAKTGTGDYWGQGTTLTVSS VL: not shown
2 | 4.84 nM | 0.0001 s⁻¹ | 23000 M⁻¹ s⁻¹ | 82B (antibody, V domains shown, Mouse anti-human Siglec-15 mAb; also called NC82) VH: QVQLQQSGAELARPGASVKLSCKASGYTFTSDGITWVKQRTGQGLEWIGQIHPRSGNTYYNGKFKGKATLTADRSSSTTYMELRSLTSEDSAVYFCAKTGTGDYWGQGTTLTVSS VL: not shown
3 | 0.58 nM | 0.000174 s⁻¹ | 317000 M⁻¹ s⁻¹ | 1C3 (antibody, V domains shown, Mouse anti-human Siglec-15 mAb) VH: QVQLKQSGAELVKPGASVKISCKASGYIFTDYYVNWVKQRPGQGLEWIGKIGPGSVSIYYNEKFKGKATLTADKSSSTAYMQLSSLTSEDSAVYFCASYYYGFAYWGQGTLVTVSA VL: DIVMTQAAPSVPVTPGESVSISCRSSKSLLHSNGNTYLYWFLQRPGQSPQLLIYRMSNLASGVPDRFGGSGSGTAFTLRISRVEAEDVGFYYCMQHLEYPYTFGGGTRLEIK
4 | 0.44 nM | 0.000134 s⁻¹ | 304000 M⁻¹ s⁻¹ | 6F8 (antibody, V domains shown, Mouse anti-human Siglec-15 mAb) VH: QVQLKQSGPELVRPGASVKISCEASGYTFTDYYVNWVKQRPGRGLEWIGKIGPGSVSIYYNEKFKDKATLTADKSSSTAYMQLSGLTSEDSAVYFCASYYYGFAYWGQGTLVTVSA VL: DIVMTQAAPSVPVTPGESVSISCRSSKSLLHSNGNTYLYWFLQRPGQSPQLLIYRMSNLASGVPDRFGGSGSGTAFTLRISRVEAEDVGVYYCMQHLEYPYTFGGGTKLEIKR
5 | 0.89 nM | 0.00023 s⁻¹ | 292000 M⁻¹ s⁻¹ | 8C8 (antibody, V domains shown, Mouse anti-human Siglec-15 mAb) VH: QVQLKQSGAELVKPGASVKISCKASGYTFTDYYVNWVKQRPGQGLEWIGKIGPESVSIYYSEKFKAKATLTADKSSSTAYMQLSSLTSEDSAVYFCASYYYGFAYWGQGTLVTVSA VL: DIVMTQAAPSVPVTPGESVSISCRSSKSLLHSNGNTYLYWFLQRPGQSPQLLIYRMSNLASGVPDRFGGSGSGTAFTLRISRVEAEDVGVYYCMQHLEYPYTFGGGTKLEIK
6 | 0.55 nM | 0.000152 s⁻¹ | 277000 M⁻¹ s⁻¹ | 10G9 (antibody, V domains shown, Mouse anti-human Siglec-15 mAb) VH: EVQLLETGGGLVQPGGSRGLSCEGSGFTFSDFWMSWVRQTPGKTLEWIGDINSDGSAVNYAPSIKDQFTIFRDNDKRTLHLQMINVRSEDTATYFCVRYDDYGYFDVWGTGTTVTVSS VL: QAVVTQESALTTSPGETVTLTCRSSTGAVTTSNYANWVQEKPDHLFTGLIGGTNNRAPGVPARFSGSLIGDKAALTITGAQTEDEAIYFCALWYSNHWVFGGGTKLTVL
7 | 1.3 nM | 0.00027 s⁻¹ | 209000 M⁻¹ s⁻¹ | 8H8 (antibody, V domains shown, Mouse anti-human Siglec-15 mAb) VH: EVQLLETGGGLVQPGGSRGLSCEGSGFTFSGFWMSWVRQTPGKTLEWIGDINSDGSAINYAPSIKDRFTIFRDNDKNTLYLQMNNVRSEDTATYFCVRYDDYGYFDVWGTGTTVTVSS VL: QAVVTQESALTTSPGETVTLTCRSSSGAVTTGNFANWVQEKPDHLFTGLIGGTNNRAPGVPARFSGSLIGDKAALTITGAQTEDEAIYFCALWYSNHWVFGGGTKLTVL
8 | 1.39 nM | 0.000102 s⁻¹ | 72000 M⁻¹ s⁻¹ | 105A (antibody, V domains shown, Mouse anti-human Siglec-15 mAb; also called NC105) VH: EVQLQQSGAELVRPGASVKLSCTASGFNIKDDYMHWVKQRPEQGLEWIGCIDPENGDIEYASRFQGKATMTADTSSNTAYLQLTSLTSADTAVYYCTTYVGFGYWGQGTLVTVSA VL: DVLMTQTPLSLPVSLGDQASISCRSSQSIVHSNGNTYLEWYLQKPGQSPKLLIYKVSNRFSGVPDRFSGSGSGTDFTLKISRVEAEDLGVYYCFQGSHVPLTFGAGTKLELK
9 | 4.01 nM | 0.000423 s⁻¹ | 105000 M⁻¹ s⁻¹ | 1C12 (antibody, V domains shown, Mouse anti-human Siglec-15 mAb) VH: EVQLVESGGGLVKPGGSLKLSCAASGFSFSDYGMHWVRQAPEKGLEWVAYISSGSSILYYADIVKGRFTISRDNAKNTLFLQMTSLRSEDTAMYYCARDHYHGNGSDYWGQGTTLTVSS VL: DVLMTQTPLSLPVSLGDQASISCRSSQSIVHSNGNTYLEWYLQKPGQSPKLLIYKVSNRFSGVPDRFSGSGSGTDFTLKISRVEAEDLGVYYCFQGSHVPWTFGGGTKLEIK
10 | 2.94 nM | 0.000211 s⁻¹ | 73000 M⁻¹ s⁻¹ | 6A (antibody, V domains shown, Mouse anti-human Siglec-15 mAb; also called NC6) VH: EVQLQQSGAELVRPGASVKLSCTASGFNIKDDYMHWVKQRPEQGLEWIGCIDPENGDTEYASKFQDKATITTDTSSNTAYLQLSSLTSEDTAVYYCTTYVGFAYWGQGTLVTVST VL: DVLMTQTPLSLPVSLGDQASISCRSSQSIVHSNGNTYLEWYLQKPGQSPKLLIYKVSNRFSGVPDRFSGSGSGTDFTLRISRVEAEDLGVYYCFQGSHVPLTFGAGTKLELK
11 | 4.33 nM | 0.000609 s⁻¹ | 143000 M⁻¹ s⁻¹ | 1B2 (antibody, V domains shown, Mouse anti-human Siglec-15 mAb) VH: EVQLVESGGGFVKPGGSLKLSCAASGFTFSDYGMHWVRQAPEKGLEWVAYISSGSSIIYYADTVKGRFTISRDNAKNTLFLQMTSLRSEDTAMYYCARDHYHGNGSDYWGQGTTLTVSS VL: DVLMTQTPLSLPVSLGDQASISCRSSQSIVHSNGNTYLEWYLQKPGQSPKLLIYKVSNRFSGVPDRFSGSGSGTDFTLKISRVEAEDLGVYYCFQGSHVPWTFGGGTKLEIK
12 | 1.93 nM | 0.000143 s⁻¹ | 72000 M⁻¹ s⁻¹ | 77A (antibody, V domains shown, Mouse anti-human Siglec-15 mAb; also called NC77) VH: EVQLQQSGAELVRPGASVKLSCTASGFNIKDDYMHWVKQRPEQGLEWIGCIDPENGDTEYASKFQGKATITADTSSNTVYLQLSSLTSEDTAVYYCTTYVGFGYWGQGTLVTVSA VL: DVLMTQSPLSLPVSLGDQASISCRSSQNIVHSNGNTYLEWYLKKPGQSPKLLIYKVSNRFSGVPDRFSGSGSGTDFTLKISRVEAEDLGMYYCFQGSHVPLTFGAGTKLELK
13 | 3.08 nM | 5.9e-05 s⁻¹ | 23000 M⁻¹ s⁻¹ | 104B (antibody, V domains shown, Mouse anti-human Siglec-15 mAb; also called NC104) VH: QVQLQQSGPELARPGASVKLSCKASGYTFTSYGISWVKQRTGQGLEWIGQIHPRSGNTYYNENFKGKATLTAAKSSSTAYLELRSLTSEDSAVYFCAREGGPDYWGQGTTLTVSS VL: not shown
14 | 0.5 nM | 0.000175 s⁻¹ | 348000 M⁻¹ s⁻¹ | 80A (antibody, V domains shown, Mouse anti-human Siglec-15 mAb; also called NC80) VH: QVQLKQSGAELVRPGASVKLSCRASGYTFTDFYINWVKQRPGQGLEWIARIYPGSDETYYNEKFKDKVTLTAEKSSSTAYMQLSSLTSEDSAVYFCALWFFDVWGTGTTVTVSS VL: DIVMTQSPSSLTVTAGEKVTMSCKSNQSLLNSGDQKNYLTWYQQKPGQPPKLLIYWASTRESGVPDRFTGSGSGTDFTLTISSVQAEDLAIYYCQNDYSYPLTFGAGTKLELK
15 | 0.88 nM | 0.000162 s⁻¹ | 185000 M⁻¹ s⁻¹ | 93B (antibody, V domains shown, Mouse anti-human Siglec-15 mAb; also called NC93) VH: QVQLKQSGAELVRPGASVKLSCKASGYTFTDYYINWVKQRPGQGLEWIARIYPGNGNTDYNEKFKDKATLTAEKSSTTAYIQLSSLTSEDSAVYFCCLWYFDVWGTGTTVTVSS VL: DIVMTQSPSSLTVTAGEKVTMSCKSSQSLLNSGNQKNYLTWYQQKPGQPPKLLIYWASTRESGVPDRFTGSGSGTDFTLTISNVQPEDLAVYYCQNDYSFPFTFGSGTELEMK
16 | 1.42 nM | 0.00014 s⁻¹ | 99000 M⁻¹ s⁻¹ | 92A (antibody, V domains shown, Mouse anti-human Siglec-15 mAb; also called NC92) VH: DVQLQESGPGLVKFSQSLSLTCSVTGYSITSGYYWNWIRQFPGNKLEWMGYIRHDGSNNYNPSLKNRISITRDTSKNQFFLKLNSVITEDTATYYCVREIYDGSSGYFDVWGTGTTVTVSS VL: QIVLTQSPAIMSASLGEEITLICSASSSVSYMHWYQQKSGTSPKLLIYRTSNLASGVPSRFSGSGSGTFYSLTISSVEAEDAADYYCHQWSSWTFGGGTQLEIK
17 | 0.6 nM | 0.000178 s⁻¹ | 306000 M⁻¹ s⁻¹ | 3H10 (antibody, V domains shown, Mouse anti-human Siglec-15 mAb) VH: EVQLQQSGAELVRPGASVKLSCTASGFNIKDYYMHWVKERPEQGLEWIGRIDPEDGDIEYDPKFQGKATMTADTSSNTAYLQFSSLTSEDTAVYYCVTDYDYDGGWFAYWGQGTLVTVSA VL: QIILTQSPAIMSASPGEKVTMTCSASSSTSFMHWYQQKPGTSPKRWIFDTSKLASGVPGRFIGSGSGTSYSLTISTMEAEDAATYYCHQRSAYPWTFGGGTKLEIK
18 | 1.19 nM | 0.000415 s⁻¹ | 353000 M⁻¹ s⁻¹ | 83B (antibody, V domains shown, Mouse anti-human Siglec-15 mAb; also called NC83) VH: EVQLQQSGPELVKPGASVKMSCKASGYTFTDYNMHWVKQSHGKSLEWIGYINPNNGGTSYNQKFKDKATLTVNKSSSTAFMELRSLASEDSAVYYCARSDWEDCWGQGTTLTVSS VL: EIQMTQSPSSMSASLGDRITITCQATQDIVKNLNWYQQKPGKPPSFLIYYATELAEGVPSRFSGSGSGSDYSLTISNLESEDFADYYCLQFYEFPYTFGGGTKLEIK
